# Structures can show the parent of a compound that is named as a salt.
# Key:
# [1] = tested on: ammonia water-induced cough in mice; assay: Antitussive effect on ammonia water-induced cough in mice; type: in vivo, ICR mice; conditions: for Latency period: 1 hour before 10% ammonia water 10 seconds, solvent control 30.0 ± 1.8; for Latency period / Cough frequency: X ± SEM; for Cough frequency: within 2 minutes, 1 hour before 10% ammonia water, solvent control 65.5 ± 3.8
# Description: • Animals: male ICR mice; • Drug and reagents: dextromethorphan hydrobromide, ammonia, 0.2% CMC-Na, protein CF1; • Instruments: Compressed nebulizer (403T), balance (XS105DU). • Experiment grouping: • Solvent control group; • Dextromethorphan 15 mg/kg group; • Protein CF1, 20 mg/kg group, 50 mg/kg group.
# Model establishment and drug administration: Mice were orally administered dextromethorphan or varying doses of protein CF1 (administration volume: 10 ml/kg). The solvent control group were administered an equal volume of distilled water. After 1 hour, mice were placed in a sealed chamber and atomized with 10% ammonia water for 10 seconds. The cough latency period and cough frequency within 2 minutes were then observed and recorded.
# Data processing: The oral administration time point, the nebulization exposure time point, the cough latency period, and the cough frequency within 2 minutes were recorded respectively. The cough latency period refers to the time interval of seconds required from the start of ammonia nebulization to the occurrence of coughing. The manifestation of coughing in mice is characterized by the contraction of their abdominal muscles (chest retraction) and the opening of their mouths wide. The mean and standard error of data in each group were calculated. The TTEST test was applied to compare the model group with the other groups. P<0.05 was considered as a significant difference.
# [2] = tested on: yeast-induced fever model in rats; assay: Yeast-induced SD rat fever model; type: in vivo, SD rats; conditions: for Basal body temperature: rectal temperature before modeling, N=8; for Body temperature 2 hours after modeling / Body temperature 6 hours after modeling / Body temperature 8 hours after modeling / Body temperature 4 hours after modeling: then 20% yeast suspension 10 ml/kg s.c.; for Body temperature 2 hours after modeling: model group 37.5 ± 0.1; for Body temperature 6 hours after modeling / Body temperature 8 hours after modeling: model group 37.6 ± 0.1; for Body temperature 4 hours after modeling: model group 37.7 ± 0.1; for Effect on body temperature of model rats (in words): P<0.05 vs model group
# Description: • Animals: male SD rats, weight 230-260 grams; • Medicines: yeast (OXOID LP0021), Aspirin (SIGMA A2093), protein CF1; • Instruments: electronic balance (SARTORIUS BP121S), electronic clinical thermometer • (CITIZEN CT-513W). • Experiment grouping: • Normal control group; • Model group: yeast-induced fever model; • Positive control group: Aspirin 300 mg/kg group; • Protein CF1, 10 mg/kg group, 50 mg/kg group.
# Preparation of experimental animals: After the experimental animals were adapted to the experimental environment (temperature 22° C.±2° C., relative humidity 50%±2%) for 1 day, the rectal temperature was measured for pre-adaptation at 8:00 in the morning and 15:00 respectively. The animals were fasted for 12 hours before the experiment with water provided ad libitum, and their bowels were emptied before the rectal temperature was measured. Before each temperature measurement, the probe of the electronic thermometer was applied with Vaseline and inserted 2 cm into the rat's rectum (a marker was made at 2 cm to ensure consistent insertion depth each time). The body temperature was recorded after readings stabilized.
# (§1) Subcutaneous injection of dry yeast to replicate the rat fever model: Before model establishment, the body temperature of rats was measured. Qualified rats with body temperatures of 36.2-37.3° C. were selected and randomly grouped, with 8 rats per group. After oral administration of aspirin and different doses of protein CF1, 20% yeast suspension (10 ml/kg) was immediately subcutaneously injected. The normal control group was subcutaneously injected with the same volume of normal saline. The body temperatures of rats were monitored 2 hours later, once every 2 hours, for a total of 8 hours.
# (§2) Based on the body temperature values measured at each time point on the day of the experiment, the mean, standard deviation and standard error of body temperature of rats in each group were calculated. The TTEST test was applied to compare the data of each group between groups, and P<0.05 was considered as a significant difference.
# [3] = tested on: lipopolysaccharide (LPS) induced fever in rats; assay: Lipopolysaccharide (LPS)-induced SD rat fever model; type: in vivo, SD rats; conditions: for Body temperature 2 hours after modeling / Body temperature 4 hours after modeling / Body temperature 6 hours after modeling / Body temperature 8 hours after modeling: then LPS 20 μg/kg i.p.; for Body temperature 2 hours after modeling / Body temperature 4 hours after modeling: model group 37.7 ± 0.1; for Body temperature 6 hours after modeling: model group 37.8 ± 0.2; for Body temperature 8 hours after modeling: model group 37.9 ± 0.2; for Effect on body temperature of model rats (in words): P<0.05 vs model group
# Description: • Animals: Male SD rats, weight: 230-260 grams; • Drugs: lipopolysaccharide (LPS, SIGMA L-2880), aspirin (SIGMA A2093), protein CF1; • Instruments: electronic balance (SARTORIUS BP121S), electronic clinical thermometer (CITIZEN CT-513W). • Experiment grouping: • Normal control group; • Model group: lipopolysaccharide fever model group; • Positive control group: Aspirin 300 mg/kg group; • Protein CF1, 10 mg/kg group, 50 mg/kg group. • Method: the method for replicating the rat fever model via intraperitoneal injection of lipopolysaccharide. • Preparation of experimental animals: After the experimental animals were adapted to the experimental environment (temperature 22° C.±2° C., relative humidity 50%±2%) for 1 day, the rectal temperature was measured for pre-adaptation at 8:00 in the morning and 15:00 respectively. The animals were fasted for 12 hours before the experiment with water provided ad libitum, and their bowels were emptied before the rectal temperature was measured. Before each temperature measurement, the probe of the electronic thermometer was applied with Vaseline and inserted 2 cm into the rat's rectum (a marker was made at 2 cm to ensure consistent insertion depth each time). The body temperature was recorded after readings stabilized.
# as §1, with “Intraperitoneal Injection” for “Subcutaneous injection”, “Lipopolysaccharide” for “dry yeast”, “lipopolysaccharide (20 μg/kg, 2” for “20% yeast suspension (10”, “intraperitoneally” for “subcutaneously”, “later and” for “later, once every 2 hours,”
# as §2
# [4] = aspirin 300 mg/kg oral, 2, 4, 6 and 8 hours after modeling
molecule,measurement,setting,value
"COc1ccc2c(c1)[C@]13CCCC[C@@H]1[C@H](C2)N(C)CC3 [Dextromethorphan, dextromethorphan hydrobromide, reference compound]",Latency period,[1]; dextromethorphan 15 mg/kg oral,45.4 ± 2.1 s
same,Effect on latency period and cough frequency (in words),"[1]; dextromethorphan 15 mg/kg oral, vs solvent control group, P<0.05",significant improvements in terms of latency period and cough frequency
same,Cough frequency,[1]; dextromethorphan 15 mg/kg oral,36.8 ± 2.8
"CC(=O)Oc1ccccc1C(=O)O [Aspirin, aspirin, reference compound]",Basal body temperature,[2]; aspirin 300 mg/kg oral group,36.9 ± 0.1 °C
same,Body temperature 2 hours after modeling,[2]; aspirin 300 mg/kg oral,36.9 ± 0.1 °C
same,Body temperature 6 hours after modeling,[2]; aspirin 300 mg/kg oral,37.2 ± 0.1 °C
same,Body temperature 8 hours after modeling,[2]; aspirin 300 mg/kg oral,37.1 ± 0.1 °C
same,Body temperature 4 hours after modeling,[2]; aspirin 300 mg/kg oral,37.1 ± 0.2 °C
same,Effect on body temperature of model rats (in words),[2]; [4],can effectively inhibit the increase of body temperature
same,Body temperature 2 hours after modeling,[3]; aspirin 300 mg/kg oral,37.0 ± 0.2 °C
same,Body temperature 4 hours after modeling,[3]; aspirin 300 mg/kg oral,37.0 ± 0.2 °C
same,Body temperature 6 hours after modeling,[3]; aspirin 300 mg/kg oral,37.3 ± 0.1 °C
same,Body temperature 8 hours after modeling,[3]; aspirin 300 mg/kg oral,37.2 ± 0.1 °C
same,Effect on body temperature of model rats (in words),[3]; [4],can effectively inhibit the increase of body temperature
"CF1: keratin with the amino acid sequence of SEQ ID NO. 1, expressed in E. coli; tested batch is the protein in Example 7 (protein) MSCRSYRVSSGHRVGNFSSCSAGIPRNLNRFRASSVSCRSGPSFRGIGGFGSRSVITFGSCSPRIAAVGPRPIRCGVGFGAGSGMAFGFGDGIGAGLGFGSGSYLGYGFGGPGFGYRVGGIGVPAAPSITPVTVNQSLLTPLNLEIDPNAQRVKRDEKEQIKTLNNRFASFIDKVRFLEQQNKLLETKWSFLQEQKGARSNLEPLFENYITNLQRQLDIANSERARFEAERNQLQDVLEGFKKKYEEEVVFRANAENEFVALKKDVDAAFLNKAELEANVDTLTQEIDFLKTLYAAEIQLLQSHISETSVIVKMDNSRDLDLDGIIAEVRAQYEEVAKRSRADAEAWYQTKYEEMRVTAGQHCDNLRNTREEINELTRLIQRLKAEIEHAKAQRARLEAAVAEAEQQGEAALNDAKCKLADLEAALQQAKQDMARQLREYQELMNAKLGLDIEIATYRRLLEGEEIRICEGVGPVNISVSSSRGGVVCGPESLVTSSTLSRSGVTFSGSSSIRPSGACGSSLGGVVVAGGDLLSAGSRGGSVLVGEACVPSVPCPLPTEGFSSCSGGRSSSLRFVSTTTSRRTKY","Effect on body temperature of model animals (summary, in words)","[2]; 8 hours post-modeling, dose not stated",significant effect in reducing the elevated body temperature
same,Basal body temperature,[2]; CF1 10 mg/kg oral group,36.9 ± 0.1 °C
same,Body temperature 2 hours after modeling,[2]; CF1 10 mg/kg oral,37.0 ± 0.1 °C
same,Body temperature 6 hours after modeling,[2]; CF1 10 mg/kg oral,37.4 ± 0.1 °C
same,Body temperature 8 hours after modeling,[2]; CF1 10 mg/kg oral,37.2 ± 0.05 °C
same,Body temperature 4 hours after modeling,[2]; CF1 10 mg/kg oral,37.3 ± 0.1 °C
same,Effect on body temperature of model rats (in words),"[2]; CF1 10 mg/kg oral, 2 hours and 8 hours post-modeling",can significantly inhibit the temperature elevation
same,Basal body temperature,[2]; CF1 50 mg/kg oral group,36.8 ± 0.1 °C
same,Body temperature 2 hours after modeling,[2]; CF1 50 mg/kg oral,36.8 ± 0.1 °C
same,Body temperature 6 hours after modeling,[2]; CF1 50 mg/kg oral,37.4 ± 0.1 °C
same,Body temperature 8 hours after modeling,[2]; CF1 50 mg/kg oral,37.4 ± 0.1 °C
same,Body temperature 4 hours after modeling,[2]; CF1 50 mg/kg oral,37.2 ± 0.1 °C
same,Latency period,[1]; CF1 20 mg/kg oral,34.6 ± 3.1 s
same,Effect on cough frequency (in words),"[1]; CF1 20 mg/kg oral, vs solvent control group","statistically significant difference in term of cough frequency, but the effect is weak"
same,Latency period,[1]; CF1 50 mg/kg oral,35.1 ± 4.6 s
same,"Antitussive effect (summary, in words)",[1]; dose not stated,can reduce the cough frequency
same,Cough frequency,[1]; CF1 20 mg/kg oral,50.1 ± 2.8
same,Cough frequency,[1]; CF1 50 mg/kg oral,56.4 ± 4.2
same,"Effect on body temperature of model rats (summary, in words)","[3]; 2 hours post-modeling, dose not stated",significant effect in reducing the body temperature
same,Body temperature 2 hours after modeling,[3]; CF1 10 mg/kg oral,37.3 ± 0.1 °C
same,Body temperature 4 hours after modeling,[3]; CF1 10 mg/kg oral,37.7 ± 0.2 °C
same,Body temperature 6 hours after modeling,[3]; CF1 10 mg/kg oral,37.7 ± 0.2 °C
same,Body temperature 8 hours after modeling,[3]; CF1 10 mg/kg oral,37.9 ± 0.1 °C
same,Effect on body temperature of model rats (in words),"[3]; CF1 10 mg/kg oral, 2 hours after modeling",can significantly reduce the body temperature
same,Basal body temperature,"[3]; CF1 50 mg/kg oral group, rectal temperature before modeling, N=8",36.8 ± 0.05 °C
same,Body temperature 2 hours after modeling,[3]; CF1 50 mg/kg oral,37.3 ± 0.2 °C
same,Body temperature 4 hours after modeling,[3]; CF1 50 mg/kg oral,37.6 ± 0.2 °C
same,Body temperature 6 hours after modeling,[3]; CF1 50 mg/kg oral,37.9 ± 0.2 °C
same,Body temperature 8 hours after modeling,[3]; CF1 50 mg/kg oral,37.9 ± 0.1 °C

# — US20260201002A1, “KERATIN CF1, PREPARATION METHOD THEREFOR, PHARMACEUTICAL COMPOSITION COMPRISING SAME, AND USE THEREOF” (INSTITUTE OF MATERIA MEDICA ,CHINESE ACADEMY OF MEDICAL …, priority 2023, published 2026)
